In patent publication US20240059769A1 (BIOLOJIC DESIGN, published 2024):
Changes are numbered by the printed parent chain. Where two headings read alike, the source gives them in different places. Values belong to the binder of their own block, whether it stands above or below them.

Legend:
hTSLP-His [1] = molecular target: T1, hTSLP-His (human, UniProt Q969D9 29-159, limits assumed); experiment: cell-based or functional assay
recombinant human IL-13 [2] = molecular target: T2, recombinant human IL-13 (human, UniProt P35225 35-146); experiment: SPR
T2 construct: also called rh-IL-13; hIL-13

human TSLP [3] = molecular target: T3, human TSLP (human, UniProt Q969D9 29-159); experiment: SPR
T3 construct: also called hTSLP; rhTSLP

recombinant human IL-13 [4] = molecular target: T2, recombinant human IL-13; experiment: cell-based or functional assay
[5] = molecular target: T4, recombinant cynomolgus monkey IL-13 (cynomolgus monkey, UniProt Q0PW92 21-132); experiment: SPR
T4 construct: bought; also called rc-IL-13; cIL-13

hTSLP-His [6] = molecular target: T1, hTSLP-His; experiment: competition ELISA, 7 nM TSLP-His pre-incubated with antibody; competitor Tezepelumab coated
recombinant human IL-13 [7] = molecular target: T2, recombinant human IL-13; experiment: SPR; remark: listed apart in the source
human TSLP [8] = molecular target: T3, human TSLP; experiment: SPR; remark: listed apart in the source
[9] = molecular target: T5, cynomolgus monkey (cyno) TSLP (cynomolgus monkey, UniProt A0A7N9CAT7 29-159); experiment: SPR
T5 construct: also called cTSLP; cynomolgus TSLP

recombinant human IL-13 [10] = molecular target: T2, recombinant human IL-13; experiment: cell-based or functional assay; remark: listed apart in the source

T4 sequence (Q0PW92 entry or part of it): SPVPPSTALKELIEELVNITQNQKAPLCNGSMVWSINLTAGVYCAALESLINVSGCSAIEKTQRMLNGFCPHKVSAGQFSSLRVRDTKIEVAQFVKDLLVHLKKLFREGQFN
T2 sequence (P35225 35-146 limits assumed): as the sequence (Q0PW92 entry or part of it) above, with S1G, K10R, V42M, N67S, R83H, V100L counted along it
T5 sequence (A0A7N9CAT7 entry or part of it): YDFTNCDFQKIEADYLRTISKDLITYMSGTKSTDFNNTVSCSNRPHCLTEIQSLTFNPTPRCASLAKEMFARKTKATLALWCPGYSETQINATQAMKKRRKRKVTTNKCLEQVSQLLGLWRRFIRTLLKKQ

IC50 [pM], STAT5 phosphorylation inhibition in MUTZ5 cells (hTSLP-His [1]): 0.507 pM
Kd (recombinant human IL-13 [2]): 60.4 pM
koff (recombinant human IL-13 [2]): 0.000216 s⁻¹
kon (recombinant human IL-13 [2]): 3.57e+06 M⁻¹ s⁻¹
Kd (human TSLP [3]): 62.1 pM
koff (human TSLP [3]): 8.67e-05 s⁻¹
kon (human TSLP [3]): 1.4e+06 M⁻¹ s⁻¹
HEK-IL-13 [nM] (IC50, STAT6 reporter) (recombinant human IL-13 [4]): 0.0832 nM
B1: BDG38.091 (antibody, V domains shown)
VH: QMQLVESGGGVVQPGRSLTLSCAASGFEFRTYGMHWVRQAPGKGLEWLGVIWYDGSNTHYADSVKGRFTITRDNSKNTLNLQMNSLRVEDTAVYYCVRAPQWYLTAEAFDLWGQGTMVTVSS
VL: SYILTQPPSVSVAPGETATITCGGNLIGSRLVHWYQQKPGQAPVLVIYDDSDRPSRIPERFSGSNIGNTATLTISDVEAGDEADYYCQVWDHYSNHYVFGGGTKLTVL
notes: IgG1

IC50 [pM], STAT5 phosphorylation inhibition in MUTZ5 cells (hTSLP-His [1]): 830 pM
HEK-IL-13 [nM] (IC50, STAT6 reporter) (recombinant human IL-13 [4]): 0.0174 nM
B2: BDG38.086 (antibody, V domains shown)
VH: B1 VH with T19R, L48V, V88A
VL: B1 VL with I3V, E16Q, T19R, S29A, I47V, A79E, H92Y, Y93S, H96T

IC50 [pM], STAT5 phosphorylation inhibition in MUTZ5 cells (hTSLP-His [1]): 0.232 pM
HEK-IL-13 [nM] (IC50, STAT6 reporter) (recombinant human IL-13 [4]): 0.265 nM
B3: BDG38.120 (antibody, V domains shown)
VH: B1 VH with T19R, L48V, G49A, Y53D, V88A
VL: B1 VL with S29A, I66S, H92Y, Y93S, N95D, Y97M

Kd [5]: 38.9 pM
koff [5]: 0.00135 s⁻¹
kon [5]: 3.46e+07 M⁻¹ s⁻¹
IC50 (hTSLP-His [6]): 8440 pM
Kd (recombinant human IL-13 [7]): 7.78 pM
koff (recombinant human IL-13 [7]): 4.76e-05 s⁻¹
kon (recombinant human IL-13 [7]): 6.12e+06 M⁻¹ s⁻¹
Kd (human TSLP [8]): 25.5 pM
koff (human TSLP [8]): 0.000121 s⁻¹
kon (human TSLP [8]): 4.76e+06 M⁻¹ s⁻¹
Kd [9]: 45.2 pM
koff [9]: 0.000119 s⁻¹
kon [9]: 2.64e+06 M⁻¹ s⁻¹
HEK-IL-13 [nM] (IC50, STAT6 reporter) (recombinant human IL-13 [4]): 0.0562 nM
IC50 CD23 (recombinant human IL-13 [10]): 52.7 pM
B4: BDG38.125 (antibody, V domains shown)
VH: B1 VH with T19R, L48V, G49A, Y53D, V88A
VL: B1 VL with I3V, S29A, S75E, D76R, A79E, H92Y, Y93S, N95D, Y97M
notes: IgG1

HEK-IL-13 [nM] (IC50, STAT6 reporter) (recombinant human IL-13 [4]): 0.0438 nM
B5: BDG38.143 (antibody, V domains shown)
VH: B1 VH with T19R, L48V, Y53D, N57A
VL: B1 VL with E16Q, N25A, S29A, D76R, A79E, H92Y, Y93S, H96T

IC50 [pM], STAT5 phosphorylation inhibition in MUTZ5 cells (hTSLP-His [1]): 32 pM
Kd (recombinant human IL-13 [7]): 507 pM
koff (recombinant human IL-13 [7]): 0.00156 s⁻¹
kon (recombinant human IL-13 [7]): 3.07e+06 M⁻¹ s⁻¹
Kd (human TSLP [8]): 8.58 pM
koff (human TSLP [8]): 4.17e-05 s⁻¹
kon (human TSLP [8]): 4.86e+06 M⁻¹ s⁻¹
HEK-IL-13 [nM] (IC50, STAT6 reporter) (recombinant human IL-13 [4]): 0.271 nM
B6: BDG38.134 (antibody, V domains shown)
VH: B1 VH with R16Q, T19R, G49A, V88A, L104N, T105S
VL: SYVLTQPPSVSVAPGQTARITCGGNLIGARLVHWYQQKPGQAPVLVIYDDSDRPSHIPERFSGSNSGNTATLTISRVEAGDEADYYCQVWDYSADTMVFGGGTKLTVL
notes: IgG1

IC50 [pM], STAT5 phosphorylation inhibition in MUTZ5 cells (hTSLP-His [1]): 0.295 pM
Kd (recombinant human IL-13 [2]): 74.2 pM
koff (recombinant human IL-13 [2]): 0.000427 s⁻¹
kon (recombinant human IL-13 [2]): 5.75e+06 M⁻¹ s⁻¹
Kd (human TSLP [3]): 129 pM
koff (human TSLP [3]): 0.000298 s⁻¹
kon (human TSLP [3]): 2.31e+06 M⁻¹ s⁻¹
HEK-IL-13 [nM] (IC50, STAT6 reporter) (recombinant human IL-13 [4]): 0.0299 nM
B7: BDG38.110 (antibody, V domains shown)
VH: B1 VH with T19R, L48V, G49A, Y53D, V88A
VL: B1 VL with A18T, T19R, S29A, R30K, S75E, H92Y, Y93S, Y97M
notes: IgG1

Kd (recombinant human IL-13 [7]): 179 pM
koff (recombinant human IL-13 [7]): 0.000356 s⁻¹
kon (recombinant human IL-13 [7]): 2e+06 M⁻¹ s⁻¹
Kd (human TSLP [8]): 0.0746 pM
koff (human TSLP [8]): 2.85e-07 s⁻¹
kon (human TSLP [8]): 3.82e+06 M⁻¹ s⁻¹
HEK-IL-13 [nM] (IC50, STAT6 reporter) (recombinant human IL-13 [4]): 0.0443 nM
IC50 CD23 (recombinant human IL-13 [10]): 70 pM
B8: BDG38.131 (antibody, V domains shown)
VH: B1 VH with L48V, G49A, Y53D, V88A
VL: B1 VL with S29A, R30K, A79E, H92Y, H96T, Y97M
notes: IgG1

IC50 [pM], STAT5 phosphorylation inhibition in MUTZ5 cells (hTSLP-His [1]): 300 pM
Kd (recombinant human IL-13 [2]): 125 pM
koff (recombinant human IL-13 [2]): 0.000455 s⁻¹
kon (recombinant human IL-13 [2]): 3.63e+06 M⁻¹ s⁻¹
Kd (human TSLP [3]): 840 pM
koff (human TSLP [3]): 0.000532 s⁻¹
kon (human TSLP [3]): 634000 M⁻¹ s⁻¹
HEK-IL-13 [nM] (IC50, STAT6 reporter) (recombinant human IL-13 [4]): 0.0664 nM
B9: BDG38.115 (antibody, V domains shown)
VH: B1 VH with V88A
VL: B1 VL with E16Q, S29A, I66S, A79E, H92Y, Y93S, H96T
notes: IgG1
